Biological target: PD-L1 on SUP-B15 PD-L1+ cells (UniProt Q9NZQ7 19-290, limits assumed)
Experiment: cell-based or functional assay

Sequence of PD-L1 on SUP-B15 PD-L1+ cells (Q9NZQ7 19-290 limits assumed): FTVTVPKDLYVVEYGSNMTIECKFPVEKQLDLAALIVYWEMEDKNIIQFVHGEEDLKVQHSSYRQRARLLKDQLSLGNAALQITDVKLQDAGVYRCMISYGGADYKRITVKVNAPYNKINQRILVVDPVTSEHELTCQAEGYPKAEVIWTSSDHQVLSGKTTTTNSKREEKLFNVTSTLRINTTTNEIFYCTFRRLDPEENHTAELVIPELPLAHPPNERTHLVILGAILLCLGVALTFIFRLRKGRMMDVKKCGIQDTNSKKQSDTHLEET

B1: PD-L1 CAR expressed on aTGFβ/PD-L1 t-haNK cells (other)
chain: MDWIWRILFLVGAATGAHSAQPANIQMTQSPSSVSASVGDRVTITCRASQDISRWLAWYQQKPGKAPKLLIYAASSLQSGVPSRFSGSGSGTDFALTISSLQPEDFATYYCQQADSRFSITFGQGTRLEIKGGGGSGGGGSGGGGSGGGGSEVQLVQSGGGLVQPGGSLRLSCAASGFTFSSYSMNWVRQAPGKGLEWVSYISSSSSTIQYADSVKGRFTISRDNAKNSLYLQMNSLRDEDTAVYYCARGDYYYGMDVWGQGTTVTVSSAAALSNSIMYFSHFVPVFLPAKPTTTPAPRPPTPAPTIASQPLSLRPEACRPAAGGAVHTRGLDFACFWVLVVVGGVLACYSLLVTVAFIIFWVRLKIQVRKAAITSYEKSDGVYTGLSTRNQETYETLKHEKPPQ
specific killing of SUP-B15 PD-L1+ target cells, 4 h cytotoxicity assay, effector to target ratio of 8: ~70%

— patent publication US20200038441A1 (NANTKWEST, published 2020)
